Target: purified bovine arrestin3 (bovine, UniProt P32120 1-420)
Test: pull-down

Chain of purified bovine arrestin3 (P32120 whole entry): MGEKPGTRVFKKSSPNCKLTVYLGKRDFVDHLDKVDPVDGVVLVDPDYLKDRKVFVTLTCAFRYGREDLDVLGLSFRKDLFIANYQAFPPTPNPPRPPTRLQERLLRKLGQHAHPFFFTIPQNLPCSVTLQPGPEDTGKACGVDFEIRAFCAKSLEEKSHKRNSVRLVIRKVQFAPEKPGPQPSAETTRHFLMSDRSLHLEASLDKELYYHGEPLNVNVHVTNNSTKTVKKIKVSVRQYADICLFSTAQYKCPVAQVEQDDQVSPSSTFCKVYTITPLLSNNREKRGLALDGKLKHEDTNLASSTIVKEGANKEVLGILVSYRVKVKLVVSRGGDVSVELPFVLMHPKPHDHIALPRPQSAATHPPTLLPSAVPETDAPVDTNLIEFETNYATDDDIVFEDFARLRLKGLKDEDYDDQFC

Row | Binder | Kd
1 | SIDRYTAVAMPMLYNTRYSSKRRVT (domain or fragment, rat, UniProt P61169 129-153, looked up) [GST-D2-IC2] | 242 nM
2 | SIDRYTAVVMPVHYQHGTGQSSCRRVA (domain or fragment, rat, UniProt P19020 125-151, looked up) [GST-D3-IC2] | 1100 nM

Source: PMC2606909 (Molecular pharmacology, 2008)
